Source: the supplement of paper PMC9112550, “Optimization of the antimicrobial peptide Bac7 by deep mutational scanning” (BMC Biology, 2022)

System: Escherichia coli TOP10
Assay: shrunken log2 fold change of peptide-encoding DNA abundance (4.5 h post-induction vs induction); higher = less antimicrobial activity (less host growth inhibition)
Conditions: time post-induction: 4.5 h; library: site-saturation at positions 5, 18, 19, 20
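Note: peptides expressed intracellularly from a pBAD plasmid library in pooled LB shake-flask culture, induced with 0.3% L-arabinose, DNA abundance read by NGS, three biological replicates, DESeq2 with apeglm shrinkage.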

Sequence	shrunken log2 fold change
RRIRMRPPRLPRPRPRPTWQPRP	0.288
RRIRTRPPRLPRPRPRPLCVPRP	-0.357
RRIRQRPPRLPRPRPRPSTSPRP	-0.126
RRIRDRPPRLPRPRPRPWDNPRP	-0.00183
RRIRCRPPRLPRPRPRPTQYPRP	-0.0607
RRIRLRPPRLPRPRPRPTRCPRP	-0.119
RRIRKRPPRLPRPRPRPIIMPRP	-0.419
RRIRDRPPRLPRPRPRPLGAPRP	0.751
RRIRQRPPRLPRPRPRPVEAPRP	0.341
RRIRTRPPRLPRPRPRPTTMPRP	-0.109
RRIRHRPPRLPRPRPRPRGVPRP	0.335
RRIRWRPPRLPRPRPRPTHSPRP	0.331
RRIRMRPPRLPRPRPRPGAHPRP	0.473
RRIRDRPPRLPRPRPRPTSFPRP	-0.0323
RRIRPRPPRLPRPRPRPYGFPRP	-0.426
RRIRNRPPRLPRPRPRPGYKPRP	0.0376
RRIRRRPPRLPRPRPRPLYLPRP	0.926
RRIRSRPPRLPRPRPRPIHMPRP	-0.397
RRIRHRPPRLPRPRPRPMWEPRP	-0.0441
RRIRMRPPRLPRPRPRPVWKPRP	0.178
RRIRRRPPRLPRPRPRPCEGPRP	-0.0173
RRIRGRPPRLPRPRPRPSMFPRP	0.554
RRIRPRPPRLPRPRPRPLLFPRP	0.0745

Sequence	shrunken log2 fold change
RRIRWRPPRLPRPRPRPKRFPRP	0.729
RRIRCRPPRLPRPRPRPDMFPRP	-0.148
RRIRPRPPRLPRPRPRPAKPPRP	0.196
RRIRERPPRLPRPRPRPYTTPRP	-0.49
RRIRARPPRLPRPRPRPGDWPRP	0.8
RRIRERPPRLPRPRPRPCWRPRP	0.27
RRIRCRPPRLPRPRPRPFIWPRP	-0.717
RRIRDRPPRLPRPRPRPYRAPRP	-0.118
RRIRIRPPRLPRPRPRPEDHPRP	-0.185
RRIRGRPPRLPRPRPRPEYWPRP	1.03
RRIRCRPPRLPRPRPRPVQNPRP	-0.22
RRIRFRPPRLPRPRPRPMWKPRP	-0.0148
RRIRDRPPRLPRPRPRPTFKPRP	-0.0434
RRIRYRPPRLPRPRPRPSVDPRP	-0.61
RRIRERPPRLPRPRPRPQFPPRP	-0.253
RRIRFRPPRLPRPRPRPDYEPRP	-0.407
RRIRARPPRLPRPRPRPNNTPRP	-0.423
RRIRGRPPRLPRPRPRPEFSPRP	1.15
RRIRLRPPRLPRPRPRPPCFPRP	0.242
RRIRVRPPRLPRPRPRPMAGPRP	-0.00674
RRIRWRPPRLPRPRPRPVAEPRP	1.41
RRIRHRPPRLPRPRPRPTAKPRP	0.0616
RRIRPRPPRLPRPRPRPFHRPRP	-0.0334

Sequence	shrunken log2 fold change
RRIRPRPPRLPRPRPRPMCDPRP	0.164
RRIRGRPPRLPRPRPRPDNRPRP	-0.0893
RRIRCRPPRLPRPRPRPTTCPRP	-0.293
RRIRTRPPRLPRPRPRPPNFPRP	-0.0576
RRIRHRPPRLPRPRPRPVYYPRP	-1.02
RRIRCRPPRLPRPRPRPTTFPRP	-0.635
RRIRHRPPRLPRPRPRPWTWPRP	-0.00897
RRIRARPPRLPRPRPRPKHRPRP	0.556
RRIRPRPPRLPRPRPRPQMVPRP	-0.491
RRIRKRPPRLPRPRPRPAVIPRP	0.076
RRIRLRPPRLPRPRPRPKVEPRP	-0.0879
RRIRDRPPRLPRPRPRPCRGPRP	-0.138
RRIRVRPPRLPRPRPRPVWVPRP	-0.123
RRIRARPPRLPRPRPRPTMCPRP	-0.198
RRIRDRPPRLPRPRPRPEGDPRP	0.502
RRIRERPPRLPRPRPRPTDMPRP	-0.375
RRIRVRPPRLPRPRPRPCIDPRP	-0.106
RRIRARPPRLPRPRPRPAITPRP	0.322
RRIRYRPPRLPRPRPRPWRIPRP	-0.297
RRIRLRPPRLPRPRPRPIVCPRP	0.0348
RRIRIRPPRLPRPRPRPRAGPRP	1.6
RRIRCRPPRLPRPRPRPEYHPRP	-0.222
RRIRCRPPRLPRPRPRPVSMPRP	-0.0967

Sequence	shrunken log2 fold change
RRIRCRPPRLPRPRPRPWCDPRP	-0.211
RRIRNRPPRLPRPRPRPQPYPRP	-0.0389
RRIRGRPPRLPRPRPRPQYLPRP	0.0284
RRIRERPPRLPRPRPRPCIVPRP	-0.427
RRIRLRPPRLPRPRPRPPMKPRP	-0.144
RRIRYRPPRLPRPRPRPMPAPRP	0.348
RRIRCRPPRLPRPRPRPMVRPRP	0.158
RRIRGRPPRLPRPRPRPMQCPRP	-0.0159
RRIRMRPPRLPRPRPRPWWPPRP	0.445
RRIRLRPPRLPRPRPRPYWYPRP	-0.542
RRIRPRPPRLPRPRPRPWTNPRP	-0.0167
RRIRPRPPRLPRPRPRPNAPPRP	0.0216
RRIRQRPPRLPRPRPRPKIWPRP	0.362
RRIRERPPRLPRPRPRPMNYPRP	-0.981
RRIRPRPPRLPRPRPRPSPQPRP	0.2
RRIRFRPPRLPRPRPRPIAYPRP	-0.156
RRIRCRPPRLPRPRPRPFECPRP	-0.365
RRIRHRPPRLPRPRPRPMVYPRP	-0.0125
RRIRYRPPRLPRPRPRPMQLPRP	0.219
RRIRFRPPRLPRPRPRPVIWPRP	-0.0895
RRIRSRPPRLPRPRPRPQSVPRP	-0.138
RRIRIRPPRLPRPRPRPHMMPRP	-1.37
